The numbers were not newly measured in publication PMC7191063, which cites them from elsewhere.

As a reminder, the Ki is a measure of affinity in units of concentration, obtained from inhibition or displacement. As usually defined, the Kd is the free concentration of one partner at which half of the binding sites on the other are occupied at equilibrium, for simple one-to-one binding.

Series [1] deals with trypsin (Bos taurus) (UniProt P00760).
For series [2] the target is unchanged. This is another data set of the same source.

Sequence of UniProt P00760 (P00760 149-246): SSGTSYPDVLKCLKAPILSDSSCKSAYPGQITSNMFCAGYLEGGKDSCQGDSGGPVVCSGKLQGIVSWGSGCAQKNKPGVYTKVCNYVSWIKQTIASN

As to BWI-2c (from UniProt P86794), in the series with trypsin (Bos taurus) [1], the Ki is 0.174 nM.

As for VhTI (from UniProt P85981), in the series with trypsin (Bos taurus) [2], the Kd was below 1 nM.
